Experimental data reported in patent publication US10011602B2, “Immunological reagents and uses therefor” (THE UNIVERSITY OF MELBOURNE, priority 2012, dated 2018).

Assays:
MAIT TCR-BW hybridomas = test: MR1 tetramer staining of MAIT TCR-BW hybridomas; assay type: cell-based; settings: hybridomas from mouse Vα19iTG splenocytes fused with BW cell line
Text: (§1) Wild-type human MR1 containing a C-terminal cysteine can be refolded with the addition of 5-amino-6-D-ribitylamino-uracil and pyruvaldehyde, using the standard refolding conditions described above, and then purified using the standard methods also described above. MR1 refolded in this way has rRL-6-CH2OH bound as determined by X-ray crystallography structural studies, and by electrospray ionization time-of-flight (ESI TOF) mass spectrometry. […] Excess biotin is removed by passing biotinylated protein through an S200 10/300 GL (Healthcare) gel filtration column in Tris buffered saline (pH 8.0), prior to formation of tetramers by addition to PE Streptavidin (#554061, BD Pharmingen). […] In the same manner human MR1 containing a C-terminal cysteine can be refolded with the addition of 5-amino-6-D-ribitylamino-uracil, and subsequently purified by fast protein liquid chromatography (FPLC) to yield MR1 refolded with a novel ribityllumazine metabolite, reduced 7-hydroxy-ribityllumazine (rRL-7-OH). The identity of rRL-7-OH bound to MR1 was confirmed by ESI TOF mass spectrometry, and by determining its structure using X-ray crystallography. The identity of rRL-7-OH bound to MR1 was also confirmed by refolding wild-type MR1 with 5-amino-6-D-ribitylamino-uracil and ^13C-glycolaldehyde to yield MR1-^13C-rRL-7-OH.

control BW cells = test: MR1 tetramer staining of control BW cells; assay type: cell-based, mouse
Text: as §1

B1: mouse MR1-rRL-6-CH2OH tetramers: tetramers from mouse wild-type MR1-rRL-6-CH2OH (C-terminal cysteine) (protein, UniProt Q8HWB0 19-341; P01887 21-119, looked up)
Major histocompatibility …: RTHSLRYFRLAVSDPGPVVPEFISVGYVDSHPITTYDSVTRQKEPKAPWMAENLAPDHWERYTQLLRGWQQTFKAELRHLQRHYNHSGLHTYQRMIGCELLEDGSTTGFLQYAYDGQDFIIFNKDTLSWLAMDYVAHITKQAWEANLHELQYQKNWLEEECIAWLKRFLEYGRDTLERTEHPVVRTTRKETFPGITTFFCRAHGFYPPEISMTWMKNGEEIAQEVDYGGVLPSGDGTYQTWLSVNLDPQSNDVYSCHVEHCGRQMVLEAPRESGDILRVSTISGTTILIIALAGVGVLIWRRSQELKEVMYQPTQVNEGSSPS
Beta-2-microglobulin: IQKTPQIQVYSRHPPENGKPNILNCYVTQFHPPHIEIQMLKNGKKIPKVEMSDMSFSKDWSFYILAHTEFTPTETDTYACRVKHASMAEPKTVYWDRDM
modifications: rRL-6-CH2OH ligand; C-terminal cysteine; tetramer
**Q.** B1 was tested. Which “Tetramer staining of MAIT TCR-BW hybridomas” value (MAIT TCR-BW hybridomas) did it give?
**A.** The value was “stain”.

**Q.** What about the “Tetramer staining of control BW cells” value (control BW cells) of the same molecule?
**A.** Its value is “not”.
